Assay results from IntAct's records for PubMed 35512704.

B1: Mothers against decapentaplegic homolog 4 (Homo sapiens), Q13485 (parent)
chain: MDNMSITNTPTSNDACLSIVHSLMCHRQGGESETFAKRAIESLVKKLKEKKDELDSLITAITTNGAHPSKCVTIQRTLDGRLQVAGRKGFPHVIYARLWRWPDLHKNELKHVKYCQYAFDLKCDSVCVNPYHYERVVSPGIDLSGLTLQSNAPSSMMVKDEYVHDFEGQPSLSTEGHSIQTIQHPPSNRASTETYSTPALLAPSESNATSTANFPNIPVASTSQPASILGGSHSEGLLQIASGPQPGQQQNGFTGQPATYHHNSTTTWTGSRTAPYTPNLPHHQNGHLQHHPPMPPHPGHYWPVHNELAFQPPISNHPAPEYWCSIAYFEMDVQVGETFKVPSSCPIVTVDGYVDPSGGDRFCLGQLSNVHRTEAIERARLHIGKGVQLECKGEGDVWVRCLSDHAVFVQSYYLDREAGRAPGDAVHKIYPSAYIKVFDLRQCHRQMQQQAATAQAAAAAQAAAVAGNIPGPGSVGGIAPAISLSAAAGIGVDDLRRLCILRMSFVKGWGPDYPRQSIKETPCWIEIHLHRALQLLDEVLHTMPIADPQPLD
partner: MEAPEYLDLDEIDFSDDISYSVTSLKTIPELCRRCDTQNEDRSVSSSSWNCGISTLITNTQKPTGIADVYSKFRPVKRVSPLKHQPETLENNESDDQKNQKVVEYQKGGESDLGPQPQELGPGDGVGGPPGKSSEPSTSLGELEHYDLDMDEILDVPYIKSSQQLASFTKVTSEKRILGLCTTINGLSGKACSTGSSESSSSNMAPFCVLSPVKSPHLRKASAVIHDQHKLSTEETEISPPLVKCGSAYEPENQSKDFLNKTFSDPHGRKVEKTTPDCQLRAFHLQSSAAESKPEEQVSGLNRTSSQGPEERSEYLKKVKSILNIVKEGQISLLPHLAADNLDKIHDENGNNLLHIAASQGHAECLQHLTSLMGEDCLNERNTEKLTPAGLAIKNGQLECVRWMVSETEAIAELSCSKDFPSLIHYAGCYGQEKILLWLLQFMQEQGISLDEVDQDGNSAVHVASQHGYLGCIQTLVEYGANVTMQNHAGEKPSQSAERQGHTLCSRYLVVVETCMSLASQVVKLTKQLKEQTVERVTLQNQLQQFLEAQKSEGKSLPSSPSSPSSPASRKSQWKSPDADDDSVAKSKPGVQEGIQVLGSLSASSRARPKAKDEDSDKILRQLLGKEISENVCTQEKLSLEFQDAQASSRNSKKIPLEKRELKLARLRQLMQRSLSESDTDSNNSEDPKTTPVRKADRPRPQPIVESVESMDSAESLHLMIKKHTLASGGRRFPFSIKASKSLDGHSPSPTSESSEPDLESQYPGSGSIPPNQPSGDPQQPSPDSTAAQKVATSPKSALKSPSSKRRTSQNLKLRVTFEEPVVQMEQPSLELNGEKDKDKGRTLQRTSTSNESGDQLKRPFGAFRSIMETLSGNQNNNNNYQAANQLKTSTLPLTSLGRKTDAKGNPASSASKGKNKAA
B2: Mothers against decapentaplegic homolog 4 (Homo sapiens), Q13485 (parent)
chain: B1 chain
partner: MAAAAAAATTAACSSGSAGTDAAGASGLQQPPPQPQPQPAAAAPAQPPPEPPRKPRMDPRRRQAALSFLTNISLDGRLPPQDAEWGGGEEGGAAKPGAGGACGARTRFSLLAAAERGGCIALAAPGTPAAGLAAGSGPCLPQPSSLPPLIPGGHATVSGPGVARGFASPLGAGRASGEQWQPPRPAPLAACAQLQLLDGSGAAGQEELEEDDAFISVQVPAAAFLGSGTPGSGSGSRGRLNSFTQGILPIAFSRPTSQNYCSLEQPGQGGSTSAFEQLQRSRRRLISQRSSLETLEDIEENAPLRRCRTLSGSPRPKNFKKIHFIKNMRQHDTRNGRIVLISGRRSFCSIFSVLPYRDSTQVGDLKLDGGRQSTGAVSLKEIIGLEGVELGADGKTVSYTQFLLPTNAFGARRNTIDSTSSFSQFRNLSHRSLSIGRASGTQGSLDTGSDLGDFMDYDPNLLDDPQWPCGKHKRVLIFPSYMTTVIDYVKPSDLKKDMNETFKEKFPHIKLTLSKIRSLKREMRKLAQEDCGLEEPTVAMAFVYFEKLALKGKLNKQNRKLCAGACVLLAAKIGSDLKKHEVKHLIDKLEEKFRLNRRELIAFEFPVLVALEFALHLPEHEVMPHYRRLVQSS
B3: Mothers against decapentaplegic homolog 4 (Homo sapiens), Q13485 (parent)
chain: B1 chain
partner: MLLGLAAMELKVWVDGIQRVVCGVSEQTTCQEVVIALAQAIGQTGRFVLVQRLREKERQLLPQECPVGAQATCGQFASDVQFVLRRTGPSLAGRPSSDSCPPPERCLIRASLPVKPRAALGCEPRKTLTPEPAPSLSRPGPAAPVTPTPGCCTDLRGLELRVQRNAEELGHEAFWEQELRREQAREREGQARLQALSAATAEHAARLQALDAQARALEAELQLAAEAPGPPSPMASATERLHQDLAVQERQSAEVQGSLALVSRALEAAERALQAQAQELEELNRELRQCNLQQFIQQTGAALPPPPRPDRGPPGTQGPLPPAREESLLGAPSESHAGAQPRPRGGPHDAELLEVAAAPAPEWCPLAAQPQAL
B4: Mothers against decapentaplegic homolog 4 (Homo sapiens), Q13485 (parent)
chain: B1 chain
partner: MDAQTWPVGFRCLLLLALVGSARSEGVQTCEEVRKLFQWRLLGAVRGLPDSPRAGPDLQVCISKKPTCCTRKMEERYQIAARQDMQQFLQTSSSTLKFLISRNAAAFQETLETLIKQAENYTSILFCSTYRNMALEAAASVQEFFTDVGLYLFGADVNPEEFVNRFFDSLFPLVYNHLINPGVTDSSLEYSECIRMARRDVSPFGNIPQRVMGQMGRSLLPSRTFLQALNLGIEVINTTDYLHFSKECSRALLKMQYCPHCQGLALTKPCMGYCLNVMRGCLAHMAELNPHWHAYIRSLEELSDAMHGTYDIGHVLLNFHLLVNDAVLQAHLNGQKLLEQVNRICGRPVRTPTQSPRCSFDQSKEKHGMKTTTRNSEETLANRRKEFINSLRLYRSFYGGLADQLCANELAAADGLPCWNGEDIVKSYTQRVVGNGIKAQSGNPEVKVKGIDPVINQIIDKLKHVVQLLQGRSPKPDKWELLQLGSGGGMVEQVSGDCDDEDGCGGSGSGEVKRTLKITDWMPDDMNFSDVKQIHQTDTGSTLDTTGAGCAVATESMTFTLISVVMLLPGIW
B5: Mothers against decapentaplegic homolog 4 (Homo sapiens), Q13485 (parent)
chain: B1 chain
partner: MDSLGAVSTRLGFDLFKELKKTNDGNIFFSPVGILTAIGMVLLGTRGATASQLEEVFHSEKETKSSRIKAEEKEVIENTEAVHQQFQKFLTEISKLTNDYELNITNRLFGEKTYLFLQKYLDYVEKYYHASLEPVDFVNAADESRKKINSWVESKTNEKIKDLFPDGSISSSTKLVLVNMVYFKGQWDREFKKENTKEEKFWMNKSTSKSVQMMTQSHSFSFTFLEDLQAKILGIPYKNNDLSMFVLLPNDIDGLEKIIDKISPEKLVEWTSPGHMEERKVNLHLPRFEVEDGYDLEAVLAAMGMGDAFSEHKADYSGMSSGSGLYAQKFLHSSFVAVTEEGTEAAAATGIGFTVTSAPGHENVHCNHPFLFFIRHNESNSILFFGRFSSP

Variants of: B1
Conditions: with sncap_human SNCAIP

| effect of a mutation on the interaction | Variant |
| --- | --- |
| with no effect | G386D |

Variants of: B2
Conditions: with cabl1_human CABLES1, Q8TDN4

| effect of a mutation on the interaction | Variant |
| --- | --- |
| with no effect | G386D |

Variants of: B3
Conditions: with rasf7_human RASSF7, Q02833

| effect of a mutation on the interaction | Variant |
| --- | --- |
| with no effect | G386D |

Variants of: B3
Conditions: with rasf7_human RASSF7, Q02833
Remark: another data set of the same source

| effect of a mutation on the interaction | Variant |
| --- | --- |
| with no effect | D351H |

Variants of: B3
Conditions: with rasf7_human RASSF7, Q02833
Remark: another data set of the same source

| effect of a mutation on the interaction | Variant |
| --- | --- |
| with no effect | R361H |

Variants of: B3
Conditions: with rasf7_human RASSF7, Q02833
Remark: another data set of the same source

| effect of a mutation on the interaction | Variant |
| --- | --- |
| with no effect | R361C |

Variants of: B4
Conditions: with gpc5_human GPC5, P78333

| effect of a mutation on the interaction | Variant |
| --- | --- |
| with no effect | R361C |

Variants of: B4
Conditions: with gpc5_human GPC5, P78333
Remark: another data set of the same source

| effect of a mutation on the interaction | Variant |
| --- | --- |
| with no effect | R361H |

Variants of: B4
Conditions: with gpc5_human GPC5, P78333
Remark: another data set of the same source

| effect of a mutation on the interaction | Variant |
| --- | --- |
| with no effect | G386D |

Variants of: B4
Conditions: with gpc5_human GPC5, P78333
Remark: another data set of the same source

| effect of a mutation on the interaction | Variant |
| --- | --- |
| increasing interaction strength | G386D |

Variants of: B5
Conditions: with spb13_human SERPINB13, Q9UIV8

| effect of a mutation on the interaction | Variant |
| --- | --- |
| with no effect | D351H |

Variants of: B5
Conditions: with spb13_human SERPINB13, Q9UIV8
Remark: another data set of the same source

| effect of a mutation on the interaction | Variant |
| --- | --- |
| with no effect | G386D |
